Data published in patent US20110251106A1 (NEXTERA, published 2011).

Biological target: T1, Streptavidin on Dynabeads MyOne-Streptavidin magnetic beads (UniProt P22629 37-163, limits assumed)
T1 construct: also called SA; SA beads
Assay: streptavidin bead capture of virions, anti-M13 MAb-HRP detection

T1 sequence (P22629 37-163 limits assumed): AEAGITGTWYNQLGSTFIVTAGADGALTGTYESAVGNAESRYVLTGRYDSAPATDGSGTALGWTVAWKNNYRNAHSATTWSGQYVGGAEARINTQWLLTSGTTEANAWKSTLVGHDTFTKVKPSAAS

B1: wild type pVII on M13K07 wt helper phage virions (other)
chain: MEQVADFDTIYQAMIQISVVLCFALGIIAGGQR
notes: Control virion with no tag on pVII; Also used here for phagemid virions packaged with wt M13K07; also called wildtype M13K07; wt pVII
binding result: no binding
